Laboratory results taken from PMC13544220, “Glycemic and bodyweight effects of GIPR coding variation reflect differences in surface expression and intrinsic functional impairment” (Science Advances, 2026).

Legend:
Type in all cases: cell-based, human
[1] = system: wild-type and variant SNAP-GIPR; assay: cADDis cAMP imaging in AD293 cells, ensemble, expression-matched and per decile; details: Fig S3F, cADDis, mean
Method in brief: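 Transient SNAP-GIPR plus cADDis BacMam in AD293; 24 h; SNAP-Surface AF647 500 nM, 10 min RT; wide-field 10X imaging at 37°C in KRBH/6 mM glucose/0.1% BSA. Cells failing IBMX/FSK response criteria excluded.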

[2] = system: wild-type and variant SNAP-GIPR; assay: Constitutive and agonist-mediated internalization, reversible SNAP-tag labelling, AD293 cells; set-up: key to Internalisation, Vehicle / Internalisation, +GIP / Internalisation, GIP-only: % internalization: residual fluorescence after Mesna vs pre-Mesna; Surface expression: unit not given here; details: Mean; for +GIP internalisation (100 nM) / GIP-specific internalisation (100 nM) / Constitutive internalisation (100 nM) / Surface expression: Fig 4E; for +GIP internalisation (100 nM) / GIP-specific internalisation (100 nM): GIP 100 nM; for Internalisation, +GIP / Internalisation, GIP-only / Internalisation, Vehicle: Fig S4C, AD293
Method in brief: (§1)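 % internalization = residual specific fluorescence after Mesna / pre-Mesna value. Imaging in TNE buffer pH 8.6; second image 10 min post-Mesna.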

[3] = system: wild-type and variant SNAP-GIPR; assay: Single-concentration GIP cAMP response by HTRF in INS-1 cells; details: Fig S3E, mean
Description: (§2) All variants were tested in parallel on each occasion to control for transfection efficiency differences between experiments.

[4] = system: wild-type and variant SNAP-GIPR; assay: Surface SNAP-GIPR expression (SNAP-tag labelling) in INS-1 cells; details: Fig 4G; Mean
Method in brief: (§3)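 Surface GIPR is quantified from wide-field images after labelling intact transfected cells with a membrane-impermeant SNAP probe at 500 nM for 10 min at room temperature. Specific signal, corrected for nontransfected cells, is normalized to the experiment-wide average or to wild-type.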

[5] = system: wild-type and variant SNAP-GIPR; assay: Surface SNAP-GIPR expression (SNAP-tag labelling) in AD293 cells; details: for AD293 Surface: Fig S3E, mean; for Surface SNAP-GIPR expression: sheet Fig 1C;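 as to all read-outs here: scaled to the experimental average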
Method in brief: as §3

[6] = system: wild-type and variant SNAP-GIPR; assay: Single-concentration GIP cAMP response by HTRF in AD293 cells; details: Fig S3F, HTRF, mean;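 also: ratio to experiment-wide average response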
Description: as §2

[7] = system: wild-type and variant SNAP-GIPR; assay: Constitutive and agonist-mediated internalization, reversible SNAP-tag labelling, INS-1 cells; set-up: key to Internalisation, GIP-only / Internalisation, Vehicle / Internalisation, +GIP: % internalization: residual fluorescence after Mesna vs pre-Mesna; details: Mean; for +GIP internalisation (100 nM) / GIP-specific internalisation (100 nM) / Constitutive internalisation (100 nM): Fig 4G; for +GIP internalisation (100 nM) / GIP-specific internalisation (100 nM): GIP 100 nM; for Internalisation, +GIP / Internalisation, GIP-only / Internalisation, Vehicle: Fig S4C, INS-1
Method in brief: as §1

[8] = column repeated, paired with cAMP 100 nM

B1: S415G (protein, UniProt P48546 22-466, looked up, variant S415G)
Gastric inhibitory …: RAETGSKGQTAGELYQRWERYRRECQETLAAAEPPSGLACNGSFDMYVCWDYAAPNATARASCPWYLPWHHHVAAGFVLRQCGSDGQWGLWRDHTQCENPEKNEAFLDQRLILERLQVMYTVGYSLSLATLLLALLILSLFRRLHCTRNYIHINLFTSFMLRAAAILSRDRLLPRPGPYLGDQALALWNQALAACRTAQIVTQYCVGANYTWLLVEGVYLHSLLVLVGGSEEGHFRYYLLLGWGAPALFVIPWVIVRYLYENTQCWERNEVKAIWWIIRTPILMTILINFLIFIRILGILLSKLRTRQMRCRDYRLRLARSTLTLVPLLGVHEVVFAPVTEEQARGALRFAKLGFEIFLSSFQGFLVSVLYCFINKEVQSEIRRGWHHCRLRRGLGEEQRQLPERAFRALPSGSGPGEVPTSRGLSSGTLPGPGNEASRELESYC
AD293 100 pM cADDis [1]: 34.3916
AD293 100 nM cADDis [1]: 37.46
+GIP internalisation (100 nM) [2]: 0.8449
GIP-specific internalisation (100 nM) [2]: 0.2187
Constitutive internalisation (100 nM) [2]: 0.6262
Surface expression [2]: 1.57
Internalisation, +GIP [2]: 54.2947
Internalisation, GIP-only [2]: 14.1911
Internalisation, Vehicle [2]: 40.1036
INS-1 cAMP (100 nM) [3]: 1.389
Surface expression [4]: 1.381
AD293 Surface [5, 8]: 1.467
AD293 Surface ([5]; paired with cAMP 100 pM): 1.467
Surface SNAP-GIPR expression ([5]; replicate 1): 1.506
Surface SNAP-GIPR expression ([5]; replicate 2): 0.2667
Surface SNAP-GIPR expression ([5]; replicate 3): 1.585
Surface SNAP-GIPR expression ([5]; replicate 4): 2.194
Surface SNAP-GIPR expression ([5]; replicate 5): 1.195
Surface SNAP-GIPR expression ([5]; replicate 6): 1.281
Surface SNAP-GIPR expression ([5]; replicate 7): 1.352
Surface SNAP-GIPR expression ([5]; replicate 8): 1.443
Surface SNAP-GIPR expression ([5]; replicate 9): 1.419
Surface SNAP-GIPR expression ([5]; replicate 10): 1.583
Surface SNAP-GIPR expression ([5]; replicate 11): 1.553
Surface SNAP-GIPR expression ([5]; replicate 12): 1.476
Surface SNAP-GIPR expression ([5]; replicate 13): 2.028
Surface SNAP-GIPR expression ([5]; replicate 14): 1.05
Surface SNAP-GIPR expression ([5]; replicate 15): 1.445
Surface SNAP-GIPR expression ([5]; replicate 16): 1.582
Surface SNAP-GIPR expression ([5]; replicate 17): 1.552
Surface SNAP-GIPR expression ([5]; replicate 18): 1.539
Surface SNAP-GIPR expression ([5]; replicate 19): 1.754
Surface SNAP-GIPR expression ([5]; replicate 20): 1.368
Surface SNAP-GIPR expression ([5]; replicate 21): 1.348
Surface SNAP-GIPR expression ([5]; replicate 22): 1.435
Surface SNAP-GIPR expression ([5]; replicate 23): 1.476
Surface SNAP-GIPR expression ([5]; replicate 24): 1.595
Surface SNAP-GIPR expression ([5]; replicate 25): 1.677
Surface SNAP-GIPR expression ([5]; replicate 26): 1.136
Surface SNAP-GIPR expression ([5]; replicate 27): 1.395
Surface SNAP-GIPR expression ([5]; replicate 28): 1.292
Surface SNAP-GIPR expression ([5]; replicate 29): 1.605
Surface SNAP-GIPR expression ([5]; replicate 30): 1.394
Surface SNAP-GIPR expression ([5]; replicate 31): 1.688
Surface SNAP-GIPR expression ([5]; replicate 32): 1.36
Surface SNAP-GIPR expression ([5]; replicate 33): 1.647
Surface SNAP-GIPR expression ([5]; replicate 34): 1.582
Surface SNAP-GIPR expression ([5]; replicate 35): 1.005
Surface SNAP-GIPR expression ([5]; replicate 36): 1.822
Surface SNAP-GIPR expression ([5]; replicate 37): 1.489
Surface SNAP-GIPR expression ([5]; replicate 38): 1.364
Surface SNAP-GIPR expression ([5]; replicate 39): 0.9756
Surface SNAP-GIPR expression ([5]; replicate 40): 1.792
Surface SNAP-GIPR expression ([5]; replicate 41): 1.893
AD293 100 pM HTRF [6]: 1.117
AD293 100 nM HTRF [6]: 1.323
+GIP internalisation (100 nM) [7]: 0.6865
GIP-specific internalisation (100 nM) [7]: 0.178
Constitutive internalisation (100 nM) [7]: 0.5085
Internalisation, +GIP [7]: 49.94
Internalisation, GIP-only [7]: 12.7417
Internalisation, Vehicle [7]: 37.1983

B2: S415I (protein, UniProt P48546 22-466, looked up, variant S415I)
Gastric inhibitory …: RAETGSKGQTAGELYQRWERYRRECQETLAAAEPPSGLACNGSFDMYVCWDYAAPNATARASCPWYLPWHHHVAAGFVLRQCGSDGQWGLWRDHTQCENPEKNEAFLDQRLILERLQVMYTVGYSLSLATLLLALLILSLFRRLHCTRNYIHINLFTSFMLRAAAILSRDRLLPRPGPYLGDQALALWNQALAACRTAQIVTQYCVGANYTWLLVEGVYLHSLLVLVGGSEEGHFRYYLLLGWGAPALFVIPWVIVRYLYENTQCWERNEVKAIWWIIRTPILMTILINFLIFIRILGILLSKLRTRQMRCRDYRLRLARSTLTLVPLLGVHEVVFAPVTEEQARGALRFAKLGFEIFLSSFQGFLVSVLYCFINKEVQSEIRRGWHHCRLRRILGEEQRQLPERAFRALPSGSGPGEVPTSRGLSSGTLPGPGNEASRELESYC
AD293 100 pM cADDis [1]: 31.0791
AD293 100 nM cADDis [1]: 35.96
+GIP internalisation (100 nM) [2]: 0.7539
GIP-specific internalisation (100 nM) [2]: 0.1889
Constitutive internalisation (100 nM) [2]: 0.565
Surface expression [2]: 1.257
Internalisation, +GIP [2]: 60.2605
Internalisation, GIP-only [2]: 14.9072
Internalisation, Vehicle [2]: 45.3533
INS-1 cAMP (100 nM) [3]: 1.251
Surface expression [4]: 1.368
AD293 Surface [5, 8]: 1.415
AD293 Surface ([5]; paired with cAMP 100 pM): 1.415
Surface SNAP-GIPR expression ([5]; replicate 1): 1.538
Surface SNAP-GIPR expression ([5]; replicate 2): 1.541
Surface SNAP-GIPR expression ([5]; replicate 3): 0.8191
Surface SNAP-GIPR expression ([5]; replicate 4): 0.7376
Surface SNAP-GIPR expression ([5]; replicate 5): 1.239
Surface SNAP-GIPR expression ([5]; replicate 6): 0.9541
Surface SNAP-GIPR expression ([5]; replicate 7): 1.285
Surface SNAP-GIPR expression ([5]; replicate 8): 1.716
Surface SNAP-GIPR expression ([5]; replicate 9): 1.542
Surface SNAP-GIPR expression ([5]; replicate 10): 1.528
Surface SNAP-GIPR expression ([5]; replicate 11): 1.71
Surface SNAP-GIPR expression ([5]; replicate 12): 1.642
Surface SNAP-GIPR expression ([5]; replicate 13): 1.407
Surface SNAP-GIPR expression ([5]; replicate 14): 1.415
Surface SNAP-GIPR expression ([5]; replicate 15): 1.606
Surface SNAP-GIPR expression ([5]; replicate 16): 1.78
Surface SNAP-GIPR expression ([5]; replicate 17): 1.435
Surface SNAP-GIPR expression ([5]; replicate 18): 1.518
Surface SNAP-GIPR expression ([5]; replicate 19): 1.637
Surface SNAP-GIPR expression ([5]; replicate 20): 1.459
Surface SNAP-GIPR expression ([5]; replicate 21): 1.421
Surface SNAP-GIPR expression ([5]; replicate 22): 1.515
Surface SNAP-GIPR expression ([5]; replicate 23): 1.665
Surface SNAP-GIPR expression ([5]; replicate 24): 1.354
Surface SNAP-GIPR expression ([5]; replicate 25): 1.699
Surface SNAP-GIPR expression ([5]; replicate 26): 1.338
Surface SNAP-GIPR expression ([5]; replicate 27): 1.389
Surface SNAP-GIPR expression ([5]; replicate 28): 1.441
Surface SNAP-GIPR expression ([5]; replicate 29): 1.484
Surface SNAP-GIPR expression ([5]; replicate 30): 1.535
Surface SNAP-GIPR expression ([5]; replicate 31): 1.596
Surface SNAP-GIPR expression ([5]; replicate 32): 1.349
Surface SNAP-GIPR expression ([5]; replicate 33): 1.554
Surface SNAP-GIPR expression ([5]; replicate 34): 1.711
Surface SNAP-GIPR expression ([5]; replicate 35): 1.113
Surface SNAP-GIPR expression ([5]; replicate 36): 1.535
Surface SNAP-GIPR expression ([5]; replicate 37): 1.264
Surface SNAP-GIPR expression ([5]; replicate 38): 1.181
Surface SNAP-GIPR expression ([5]; replicate 39): 0.9176
Surface SNAP-GIPR expression ([5]; replicate 40): 1.301
Surface SNAP-GIPR expression ([5]; replicate 41): 1.157
AD293 100 pM HTRF [6]: 1.488
AD293 100 nM HTRF [6]: 1.113
+GIP internalisation (100 nM) [7]: 0.7564
GIP-specific internalisation (100 nM) [7]: 0.2171
Constitutive internalisation (100 nM) [7]: 0.5393
Internalisation, +GIP [7]: 53.8917
Internalisation, GIP-only [7]: 15.145
Internalisation, Vehicle [7]: 38.7467
